Experimental data from patent publication US20250144178A1, “PHARMACEUTICAL COMPOSITION FOR CANCER TREATMENT COMPRISING FUSION PROTEIN INCLUDING IL-12 AND ANTI-FAP ANTIBODY AND ANTICANCER AGENT” (KANAPH THERAPEUTICS INC., priority 2022, published 2025).

Legend:
HEK-Blue IL-12 cells = assay: Signaling ability in IL-12 recognizing cells (STAT4 inducible SEAP reporter); format: cell-based, human; settings: serial dilution from 4 nM, 24 hours, FIG. 18
Protocol: The HEK-Blue IL-12 cell line transformed with the IL-12 receptor gene and the STAT4 inducible SEAP reporter gene into HEK293 cells, which are human embryonic kidney fibroblasts, was obtained from Invivogen (San Diego, USA). The HEK-Blue IL-12 cells were maintained in DMEM (GIBCO) containing 10% FBS (GIBCO), 100 μg/ml Normocin and 1×HEK-Blue selection.
Specifically, the HEK-Blue IL-12 cell line, which is an IL-12 recognizing cell, was diluted to 2.8×10^5 cells/ml and dispensed at 180 μl/well. Recombinant human IL-12, T1.01m, T1.02m, T1.03m and T1.12m were suspended at 4 nM and diluted by serial dilution. HEK-Blue IL-12 cells were treated with the diluted recombinant human IL-12, T1.01m, T1.02m, T1.03m and T1.12m. After 24 hours of treatment, the cell supernatant was collected and mixed with QUANTI-Blue Solution (Invivogen) in a 96-well plate. The reporter expression level was measured at 620 nm using a spectrophotometer (Thermo Fisher).

[1] = tested on: CT26 colorectal cancer with mouse FAP overexpressing NIH-3T3 cells; assay: Tumor growth inhibition, CT26 co-injected with mouse FAP overexpressing NIH-3T3; format: in vivo, BALB/c mice
Protocol: Specifically, the mouse FAP overexpressing NIH-3T3 cells and the CT26 cells in culture were resuspended in Hanks' Balanced salt solution (HBSS, Gibco) at a concentration of 1×10^6 cells/50 μl, respectively, and the cells were mixed in a 1:1 ratio, and then 100 μl per each mouse was transplanted into the subcutaneous region of the right flank of 6-week-old BALB/c mice using a 1 cc syringe (25G) to obtain an FAP-expressing fibroblast co-injection animal model. The tumor size was measured using a digital vernier caliper by measuring the short axis and long axis of the tumor, and the tumor size was measured twice a week using the calculation formula of (short axis, mm) 2×(long axis, mm)×0.5.
Next, for drug efficacy evaluation, when the size of the tumor reached 100 mm^3, the mice were randomly divided into groups. Each experimental group consisted of 10 animals, and as a control, each 100 μl of 50 μg of T1.24m was intraperitoneally administered three times at an interval of 3 days. In the test group, each 100 μl of 10 μg and 50 μg of T1.02m and 50 μg of T1.01m, respectively, were intraperitoneally administered three times at an interval of 3 days to evaluate the tumor growth inhibitory ability.

[2] = tested on: FAP-overexpressing CT26 cells; assay: Tumor growth inhibition, FAP-overexpressing CT26 model, repeated i.p. dosing; format: in vivo, BALB/c mice; settings: 18 days after administration, control 50 μg T1.24m
Protocol: In order to prepare an mouse FAP-expressing tumor animal model, FAP overexpression was induced in CT26, a mouse colorectal cancer cell line. Specifically, the FAP-overexpressing CT26 cells in culture were resuspended in Hanks' Balanced salt solution (HBSS, Gibco), and then each 100 μl of 1×10^6 tumor cells per each mouse was transplanted into the subcutaneous region of the left dorsal side of 6-week-old BALB/c mice using a 1 cc syringe (25G) to obtain a mouse FAP-expressing colorectal cancer animal model. The tumor size was measured using a digital vernier caliper by measuring the short axis and long axis of the tumor, and the tumor size was measured twice a week using the calculation formula of (short axis, mm) 2×(long axis, mm)×0.5.
Next, for drug efficacy evaluation, when the size of the tumor reached 100 mm^3, the mice were randomly divided into groups. Each experimental group consisted of 8 animals, and as a control, each 100 μl of 50 μg of T1.24m was intraperitoneally administered four times at an interval of 3 days. In the test group, each 100 μl of 10 μg and 100 μg of T1.01m, and 2 μg, 10 μg and 100 μg of T1.02m, respectively, were intraperitoneally administered four times at an interval of 3 days to evaluate the tumor growth inhibitory ability.

CT26 tumor = assay: Tumor re-challenge in mice with complete response, CT26 tumor; format: in vivo, BALB/c mice; settings: mice with complete response after T1.01m, right flank, FIG. 26
Protocol: In order to evaluate whether tumor recurrence may be inhibited by inducing long-term immune response after fusion protein treatment, tumor re-challenge was performed in subjects in which complete response was achieved by administration of T1.01m in a tumor model transplanted with CT26 cells overexpressing FAP. BALB/c mice without a treatment history were used as control mice.
4T1 cells were subcutaneously injected into the left flank and CT26 cells were subcutaneously injected into the right flank of control mice and mice in which complete response was achieved by administration of T1.01m, to obtain a tumor recurrence model.
CT26 cells and 4T1 cells were suspended in Hanks' Balanced salt solution (HBSS, Gibco) at a concentration of 1×10^6 cells/100 μl, respectively, and CT26 cells were transplanted into the subcutaneous region of the right flank of the mice using a 1 cc syringe (25G). Tumor formation and growth were evaluated by subcutaneous transplantation of 4T1 cells into the left flank of the same mice. Nine animals were used for the control group, and seven animals were used for the test group.

[3] = tested on: FAP-overexpressing mouse colorectal cancer CT26; assay: Tumor growth inhibition by IL-12 mutation, FAP-overexpressing CT26, single i.v. dose; format: in vivo, BALB/c mice; settings: 10 μg i.v. once, 15 days after administration, control PBS, FIG. 28
Protocol: In order to evaluate the change in IL-12 activity according to the presence and extent of amino acid mutation, FAP-overexpressing mouse colorectal cancer CT26 was prepared by resuspending in PBS at a concentration of 5×10^5 cells/100 μl, and the tumor growth inhibitory ability was evaluated in a tumor animal model prepared by transplantation of the cells into 5-week-old female BALB/c mice.
Specifically, when the size of the tumor in the model reached 100 mm^3, the mice were randomly divided into groups. 100 μl of phosphate buffered saline (PBS) was administered once via tail vein injection of the control, and each of T1.01m, T1.02m and T1.03m was intravenously administered once at a dose of 10 μg.

[4] = tested on: mouse FAP overexpressing B16F10 melanoma; assay: Melanoma model, mouse FAP overexpressing B16F10; format: in vivo, C57BL/6J mice; settings: 10 μg and 100 μg i.v. once, control PBS, FIG. 30
Protocol: In order to identify the anticancer effect through immune activation of the fusion protein, mouse FAP was overexpressed in the mouse melanoma cell line B16F10, which is known to have little immune cell infiltration, and then transplanted into C57BL/6J mice, and the tumor growth inhibitory ability was evaluated.
Specifically, the cells in culture were resuspended in Hanks' Balanced salt solution (HBSS, Gibco), and then 100 μl of 1×10^6 tumor cells per each mouse were transplanted into the subcutaneous region of the left the dorsal flank side of 6-week-old C57BL/6J mice.
Next, for drug efficacy evaluation, when the size of the tumor reached 70 to 100 mm^3, the mice were randomly divided into groups. As the control, PBS was administered, and as the test group, T1.03m was intravenously administered once at a dose of 10 μg and 100 μg.

B1: T1.01m: K&H bispecific: anti-mu FAP/mu IL-12, mu IgG2a DANG (seq18, seq19, seq20) (antibody)
heavy: QVQLQQSGAELARPGASVNLSCKASGYTFTNNGINWLKQRTGQGLEWIGEIYPRSTNTLYNEKFKGKATLTADRSSNTAYMELRSLTSEDSAVYFCARTLTAPFAFWGQGTLVTVSAAKTTAPSVYPLAPVCGDTTGSSVTLGCLVKGYFPEPVTLTWNSGSLSSGVHTFPAVLQSDLYTLSSSVTVTSSTWPSQSITCNVAHPASSTKVDKKIEPRGPTIKPCPPCKCPAPNLLGGPSVFIFPPKIKDVLMISLSPIVTCVVVAVSEDDPDVQISWFVNNVEVHTAQTQTHREDYGSTLRVVSALPIQHQDWMSGKEFKCKVNNKDLPAPIERTISKPKGSVRAPQVYVLPPPEEEMTKKQVTLWCMVTDFMPEDIYVEWTNNGKTELNYKNTEPVLDSDGSYFMYSKLRVEKKNWVERNSYSCSVVHEGLHNHHTTKSFSRTPGK
light: QIVLTQSPAIMSASPGEKVTMTCSASSGVNFMHWYQQKSGTSPKRWIFDTSKLASGVPARFSGSGSGTSYSLTISSMEAEDAATYYCQQWSFNPPTFGGGTKLEIKRADAAPTVSIFPPSSEQLTSGGASVVCFLNNFYPKDINVKWKIDGSERQNGVLNSWTDQDSKDSTYSMSSTLTLTKDEYERHNSYTCEATHKTSTSPIVKSFNRNEC
chain: MWELEKDVYVVEVDWTPDAPGETVNLTCDTPEEDDITWTSDQRHGVIGSGKTLTITVKEFLDAGQYTCHKGGETLSHSHLLLHKKENGIWSTEILKNFKNKTFLKCEAPNYSGRFTCSWLVQRNMDLKFNIKSSSSSPDSRAVTCGMASLSAEKVTLDQRDYEKYSVSCQEDVTCPTAEETLPIELALEARQQNKYENYSTSFFIRDIIKPDPPKNLQMKPLKNSQVEVSWEYPDSWSTPHSYFSLKFFVRIQRKKEKMKETEEGCNQKGAFLVEKTSTEVQCKGGNVCVQAQDRYYNSSCSKWACVPCRVRSGGGGSGGGGSGGGGSRVIPVSGPARCLSQSRNLLKTTDDMVKTAREKLKHYSCTAEDIDHEDITRDQTSTLKTCLPLELHKNESCLATRETSSTTRGSCLPPQKTSLMMTLCLGSIYEDLKMYQTEFQAINAALQNHNHQQIILDKGMLVAIDELMQSLNHNGETLRQKPPVGEADPYRVKMKLCILLHAFSTRVVTINRVMGYLSSAGGGGSGGGGSEPRGPTIKPCPPCKCPAPNLLGGPSVFIFPPKIKDVLMISLSPIVTCVVVAVSEDDPDVQISWFVNNVEVHTAQTQTHREDYGSTLRVVSALPIQHQDWMSGKEFKCKVNNKDLPAPIERTISKPKGSVRAPQVYVLPPPEEEMTKKQVTLSCAVTDFMPEDIYVEWTNNGKTELNYKNTEPVLDSDGSYFMVSKLRVEKKNWVERNSYSCSVVHEGLHNHHTTKSFSRTPGK
HEK-Blue IL-12 cells
  IL-12 recognition / STAT4 reporter gene expression (620 nm absorbance): IL-12 was recognized, and STAT4 expressed a reporter gene by inducing phosphorylation
[1]; 50 μg i.p. three times at an interval of 3 days, 14th day, control 50 μg T1.24m
  tumor growth inhibitory ability compared to control: 91.9%
[1]; 24th day after administration, FIG. 24
  complete response: subjects in complete response were observed
[2]; 10 μg i.p. four times at an interval of 3 days
  tumor growth inhibitory ability compared to control: 84.9%
[2]; 100 μg i.p. four times at an interval of 3 days
  tumor growth inhibitory ability compared to control: 85.6%
CT26 tumor
  growth of re-challenged CT26 tumor: the growth of the CT26 tumor was inhibited
[3]
  tumor growth inhibitory ability compared to the control: excellent tumor growth inhibitory ability
[4]
  tumor growth inhibitory ability compared to the control: high tumor growth inhibitory ability
